Data on three molecules can be found in patent US20240247063A1 (Janssen / Centocor, published 2024).

Where a chain is given by its changes, count along the chain named. Names and notes keep the numbering of the source. Values joined by “and” are separate entries in the source; they are usually repeats but may differ in a detail not shown here. Equal entries are not always repeated.

The target of experiment [1] is T1, T Cell Receptor Beta Variable 17 (Vβ17) on the surface of human T cells (human).
T1 construct: whole, on cells; Polyclonal Vβ17+ T cells of donors; also called V 17; Vb17
Kind of experiment: flow cytometry, CD8+ T cells from Vβ17 non-depleted PBMCs.

The target in experiment [2] is T1, T Cell Receptor Beta Variable 17 (Vβ17) …. Description: flow cytometry, binding to CD8+ T cells isolated from PBMCs, donor D203517.
Experiment [3] has the same target. Kind of experiment: flow cytometry, FLU MP 58-stimulated enriched CD8+ T cells, anti-human IgG4 Fc-PE.
Description: Mouse anti-human IgG4 Fc-PE secondary antibody was used to detect the bispecific antibody.
Bispecific antibody binding affinities to CD8+ T cell were determined by flow cytometry.
The target is the same in experiment [4]. Kind of experiment: flow cytometry, binding to CD8+ T cells isolated from PBMCs, donor HPU 08694.
For experiment [5] the target is unchanged. Description: flow cytometry, binding to CD8+ T cells isolated from PBMCs, donor HPU 09381.
The target is the same in experiment [6]. Description: flow cytometry, binding to CD8+ T cells isolated from PBMCs (only the Vβ17 non-depleted curve rises).
In experiment [7] the target is T2, CD123 on Kasumi-3 AML cells (human, UniProt P26951 19-378).
T2 construct: whole, on cells; also called interleukin-3 receptor; IL-3R
Kind of experiment: flow cytometry, binding to Kasumi3 AML cells.

The target in experiment [8] is T3, prostate-specific membrane antigen (PSMA) on C4-2B cells (human, UniProt Q04609 1-750).
T3 construct: whole, on cells
Kind of experiment: flow cytometry on C4-2B cells, APC secondary antibody.
Description: The C4-2B cells were centrifuged and re-suspended in DPBS and counted. 4 million cells were re-suspended in 8 mL of DPBS and 8 μL of Violet Fluorescent Dye was added and incubated for 15 min. in 4° C. Eight milliliters FACS buffer was added to neutralize mix and 200 μL per well was seeded. The plate was centrifuged and re-suspended in 100 μL of antibody dilutions accordingly and incubated for 30 min. in incubator. 10 μg/mL conc. of each antibodies were prepared in 200 μL stock and further diluted to 8 points by adding 60 μL to 120 μL of FACS serially buffer to get 3-fold dilution. 100 μL of FACS buffer were added to each well, centrifuged, re-suspended in 100 μL FACS buffer with 0.5 μL/well con. Secondary antibody tagged with APC & incubated for 30 min. 4° C. Next, 100 μL of FACS buffer was added to each well, centrifuged, re-suspended in 100 μL BD Cytofix & incubated for 10 min. 4° C. 100 μL of FACS buffer were added to each well, centrifuged, re-suspended in 100 μL FACS buffer, stored at 4° C. Data was acquired in Flow cytometer and the data was analyzed.

The target of experiment [9] is T1, T Cell Receptor Beta Variable 17 (Vβ17) …. Description: flow cytometry, MFI, pan T cells of donor NHV21-07171.
Description: (§1) Binding assay was done with isolated Pan T cells from 2 donors. Pan T cells were isolated from Whole PBMCs. 1 μL Live dead (1:1000 diluted) and Fc Block 2 μL/well was added. 100 μL of the cell suspension was seeded in 96 well V bottom plate at 100,000 cell per well and incubated for 10 minutes at 4° C. The plate was washed by adding 190 μL FACS buffer spun at 1500 rpm for 5 minutes. 100 μL diluted test antibodies was added to the plate and the plate was incubated at 37° C. 5% CO₂ for 45 minutes. Wash step was repeated. 100 μL diluted Secondary antibody (0.5 μL/well in 100 μL FACS buffer) was added and the plate was incubated at 4° C. for 45 minutes. Wash step was repeated. 100 μL cytofix was added to the pellet and the plate was incubated at 4° C. for 10 minutes. Wash step was repeated. 100 μL FACS buffer was added to the pellet and sample was analyzed by Flow cytometry. Cells were gated on FSC/SSC, followed by live cell gating.
Experiment [10] has the same target. Description: flow cytometry, MFI, pan T cells of donor NHV21-07174.
Description: as §1
The target is the same in experiment [11]. Description: flow cytometry, % binding, pan T cells of donor NHV21-07171.
Description: as §1
Experiment [12] has the same target. Description: flow cytometry, % binding, pan T cells of donor NHV21-07174.
Description: as §1

T1 sequence (A0A075B6N1 22-114): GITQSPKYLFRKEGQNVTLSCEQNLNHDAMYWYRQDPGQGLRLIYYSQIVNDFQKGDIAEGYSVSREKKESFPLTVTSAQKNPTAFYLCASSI
T2 sequence (P26951 19-378): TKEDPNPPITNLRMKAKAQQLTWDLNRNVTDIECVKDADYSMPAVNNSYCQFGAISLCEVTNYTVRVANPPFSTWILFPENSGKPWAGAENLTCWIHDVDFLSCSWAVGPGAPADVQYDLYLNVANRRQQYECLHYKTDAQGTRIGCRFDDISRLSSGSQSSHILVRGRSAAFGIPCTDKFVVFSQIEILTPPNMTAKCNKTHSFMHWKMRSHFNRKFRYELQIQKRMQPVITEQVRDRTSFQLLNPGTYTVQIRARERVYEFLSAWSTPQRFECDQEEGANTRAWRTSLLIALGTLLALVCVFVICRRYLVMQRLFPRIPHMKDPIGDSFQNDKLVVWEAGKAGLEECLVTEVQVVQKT
T3 sequence (Q04609 whole entry): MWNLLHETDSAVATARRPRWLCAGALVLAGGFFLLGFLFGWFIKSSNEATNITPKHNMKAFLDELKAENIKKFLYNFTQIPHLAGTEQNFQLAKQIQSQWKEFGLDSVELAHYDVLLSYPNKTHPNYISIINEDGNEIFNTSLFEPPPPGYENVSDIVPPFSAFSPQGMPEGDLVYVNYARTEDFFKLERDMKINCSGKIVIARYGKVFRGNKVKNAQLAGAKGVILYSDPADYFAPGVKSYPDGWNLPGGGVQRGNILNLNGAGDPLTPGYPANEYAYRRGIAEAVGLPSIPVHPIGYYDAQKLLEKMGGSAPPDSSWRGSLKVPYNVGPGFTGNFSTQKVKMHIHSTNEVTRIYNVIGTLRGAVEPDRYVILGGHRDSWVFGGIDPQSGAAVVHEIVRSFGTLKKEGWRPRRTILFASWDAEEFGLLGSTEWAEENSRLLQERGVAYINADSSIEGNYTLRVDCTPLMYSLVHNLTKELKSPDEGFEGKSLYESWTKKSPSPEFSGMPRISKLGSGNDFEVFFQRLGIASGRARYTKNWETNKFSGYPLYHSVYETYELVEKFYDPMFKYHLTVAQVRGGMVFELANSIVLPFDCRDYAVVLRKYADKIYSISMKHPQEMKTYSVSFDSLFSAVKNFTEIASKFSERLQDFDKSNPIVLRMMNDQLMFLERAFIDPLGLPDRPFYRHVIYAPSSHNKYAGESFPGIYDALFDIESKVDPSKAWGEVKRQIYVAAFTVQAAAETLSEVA

B1: VB11 (anti-Vβ17/anti-CD123) bispecific antibody (bispecific antibody, human IgG4 S228P, kappa, F234A L235A)
heavy 1: QVQLQESGPGLVKPSETLSLTCTVSGYSITSGYFWNWIRQPPGKGLEWIGYISYDGSNNYNPSLKSRVTISRDTSKNQFSLKLSSVTAADTAVYYCASPSPGTGYAVDYWGQGTLVTVSSASTKGPSVFPLAPCSRSTSESTAALGCLVKDYFPEPVTVSWNSGALTSGVHTFPAVLQSSGLYSLSSVVTVPSSSLGTKTYTCNVDHKPSNTKVDKRVESKYGPPCPPCPAPEAAGGPSVFLFPPKPKDTLMISRTPEVTCVVVDVSQEDPEVQFNWYVDGVEVHNAKTKPREEQFNSTYRVVSVLTVLHQDWLNGKEYKCKVSNKGLPSSIEKTISKAKGQPREPQVYTLPPSQEEMTKNQVSLSCAVKGFYPSDIAVEWESNGQPENNYKTTPPVLDSDGSFFLVSRLTVDKSRWQEGNVFSCSVMHEALHNRFTQKSLSLSLGK
light 1: DIQMTQSPSSLSASVGDRVTITCRSSQSLVHSNGNTYLHWYQQKPGKAPKFLIYKVSNRFSGVPSRFSGSGSGTDFTLTISSLQPEDFATYYCSQSTHVPFTFGQGTKLEIKRTVAAPSVFIFPPSDEQLKSGTASVVCLLNNFYPREAKVQWKVDNALQSGNSQESVTEQDSKDSTYSLSSTLTLSKADYEKHKVYACEVTHQGLSSPVTKSFNRGEC
heavy 2: EVQLVQSGAEVKKPGESLKISCKGSGYSFTSYWISWVRQMPGKGLEWMGIIDPSDSDTRYSPSFQGQVTISADKSISTAYLQWSSLKASDTAMYYCARGDGSTDLDYWGQGTLVTVSSASTKGPSVFPLAPCSRSTSESTAALGCLVKDYFPEPVTVSWNSGALTSGVHTFPAVLQSSGLYSLSSVVTVPSSSLGTKTYTCNVDHKPSNTKVDKRVESKYGPPCPPCPAPEAAGGPSVFLFPPKPKDTLMISRTPEVTCVVVDVSQEDPEVQFNWYVDGVEVHNAKTKPREEQFNSTYRVVSVLTVLHQDWLNGKEYKCKVSNKGLPSSIEKTISKAKGQPREPQVYTLPPSQEEMTKNQVSLWCLVKGFYPSDIAVEWESNGQPENNYKTTPPVLDSDGSFFLYSRLTVDKSRWQEGNVFSCSVMHEALHNHYTQKSLSLSLGK
light 2: EIVLTQSPGTLSLSPGERATLSCRASQSVSSSYLAWYQQKPGQAPRLLIYGASSRATGIPDRFSGSGSGTDFTLTISRLEPEDFAVYYCQQDYGFPWTFGQGTKVEIKRTVAAPSVFIFPPSDEQLKSGTASVVCLLNNFYPREAKVQWKVDNALQSGNSQESVTEQDSKDSTYSLSSTLTLSKADYEKHKVYACEVTHQGLSSPVTKSFNRGEC
Turning to B1, the “EC50 (read off the curve)” value is roughly 0.2 µg/mL in experiment [1], roughly 0.2 µg/mL in [2], roughly 0.2 µg/mL in [4] and roughly 0.1 µg/mL in experiment [5]. For the same molecule, the EC50 in [2] is 1.26 nM; in [3], 1.35 µg/mL and 9 nM; in [4] it was 1.9 nM; in [5], 0.8 nM; in [6] it was 12.2 nM.

B2: VB13 (Vβ17×Null) bispecific antibody (bispecific antibody, human IgG4 S228P, kappa, F234A L235A)
heavy 1: B1 heavy 1
light 1: B1 light 1
heavy 2: not shown
light 2: not shown
notes: Knob-into-hole human IgG4; also called Vβ17XNULL; V 17 null control bispecific
B2: the binding result in experiment [7] was “no binding (tested: about 20 µg/mL)”. Moreover, the “EC50 (read off the curve)” value in [1] is roughly 0.3 µg/mL; in experiment [2], roughly 0.2 µg/mL; in experiment [4] it was roughly 0.3 µg/mL; in experiment [5], roughly 0.2 µg/mL. The EC50 is 1.4 nM in [2]; 2.8 µg/mL and 18.7 nM in experiment [3]; 1.5 nM in [4]; 1.5 nM in [5]; 12.6 nM in experiment [6].

B3: VB17B25 (PSMB410 × B17B21-N33S) (bispecific antibody, human IgG1, kappa, L234A L235A)
chain: not shown
heavy: QVQLQESGPGLVKPSETLSLTCTVSGYSITSGYFWNWIRQPPGKGLEWIGYISYDGSNNYNPSLKSRVTISRDTSKNQFSLKLSSVTAADTAVYYCASPSPGTGYAVDYWGQGTLVTVSSASTKGPSVFPLAPSSKSTSGGTAALGCLVKDYFPEPVTVSWNSGALTSGVHTFPAVLQSSGLYSLSSVVTVPSSSLGTQTYICNVNHKPSNTKVDKKVEPKSCDKTHTCPPCPAPEAAGGPSVFLFPPKPKDTLMISRTPEVTCVVVSVSHEDPEVKFNWYVDGVEVHNAKTKPREEQYNSTYRVVSVLTVLHQDWLNGKEYKCKVSNKALPAPIEKTISKAKGQPREPQVYTLPPSREEMTKNQVSLSCAVKGFYPSDIAVEWESNGQPENNYKTTPPVLDSDGSFFLVSKLTVDKSRWQQGNVFSCSVMHEALHNRFTQKSLSLSPGK
light: B1 light 1 with N33S
notes: First chain is the PSMB410 scFv-Fc; also called Vβ17B25; Vβ17×PSMA
With B3, the EC50 in experiment [8] was 2.1 µg/mL; in [9] it was 1.5 µg/mL; in experiment [10], roughly 3 µg/mL; in experiment [11] it was 0.3 µg/mL; in experiment [12], 0.2 µg/mL.
